Target: wild-type Savinase (Bacillus lentus protease of SEQ ID NO: 3) (Bacillus lentus) (UniProt P41362)
Test: cell-based or functional assay

UniProt P41362, sequence (P41362 28-380, tags left off): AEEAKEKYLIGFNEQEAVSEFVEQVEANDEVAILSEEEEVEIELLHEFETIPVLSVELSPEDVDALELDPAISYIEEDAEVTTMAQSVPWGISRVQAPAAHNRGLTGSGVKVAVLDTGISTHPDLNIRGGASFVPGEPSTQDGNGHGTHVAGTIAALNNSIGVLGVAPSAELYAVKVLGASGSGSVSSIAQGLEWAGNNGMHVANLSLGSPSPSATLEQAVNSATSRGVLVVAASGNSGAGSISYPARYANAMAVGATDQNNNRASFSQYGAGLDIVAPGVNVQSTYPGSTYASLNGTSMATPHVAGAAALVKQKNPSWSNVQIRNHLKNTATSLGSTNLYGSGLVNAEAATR

## ovoinhibitor isolated from hen egg white (from UniProt P10184 69-517)
  amount of released amplicon A (qPCR of DNA released from alpha-casein-coated microspheres by the expressed protease), compared to the amount released in the absence of ovoinhibitor: 68%
